# Measurements taken from patent publication US8962697.
# What was measured:
# LAR-7022 = system: T1, LAR-7022
# T1 sequence: ADDIGTSRPQE
# LAR-7047 = system: T2, LAR-7047
# T2 sequence: VFFRRQTA
# LAR-7048 = system: T3, LAR-7048
# T3 sequence: PRRICV
substance,measurement,setting,value
Staphopain A and Staphopain B,"hydrolysis of the peptide substrate, fragments by mass spectrometry",LAR-7022,Degradation of LAR-7022 (b-ADDIG-TSRPQE): 1188.56 amu produced specific fragment pick: 717.37 corresponding to TSRPQE sequence
same,degradation of the control peptide,LAR-7047,No degradation was observed in these systems
same,degradation of the control peptide,LAR-7048,No degradation was observed in these systems
